Experimental data taken from article PMC6879612 (2019).

Target: p53_(125–134)/HLA-A24 pMHC, soluble recombinant (human | , UniProt P61769 21-119; P04637 125-134, biotin where the biotinylated pMHC was used (site not stated))
Assay: SPR

koff: 0.139 s⁻¹
B1: P1C1gl (germline sequence converted P1C1), human IgG1 (antibody, V domains shown)
VH: QVQLQESGPGLVKPSQTLSLTCTVSGGSISSGGYYWSWIRQHPGKGLEWIGYIYYSGSTYYNPSLKSRVTISVDTSKNQFSLKLSSVTAADTAVYYCARENFGAFDHWGQGTLVTVSS
VL: QSVLTQPPSVSGAPGQRVTISCTGSSSNIGADYETHWYQQLPGTAPKLLIYGNTNRPSGVPDRFSGSKSGTSASLAITGLQAEDEADYYCQSYDSNLSAWVFGGGTKLTIL
